Source: the supplement of paper PMC11780869

Test system: Bacillus subtilis
Assay: cleaved RNA product abundance (RNA/gDNA barcode ratio) relative to median wild-type variant (ratio to wild type); higher = more accumulation of the downstream cleavage product
Settings: cleavage site: cggR-gapA (positions -7 to +36 mutated)
Procedure, shortened: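 Cleaved product abundance is expressed as the RNA:gDNA barcode ratio per construct, scaled to the median construct carrying the unmutated site. The constructs were barcoded, mutagenized RNase Y cleavage-site windows in truncated aprE or tetM reporter mRNAs integrated into the B. subtilis chromosome. Cultures grew in LB at 37°C from OD600 0.0003 to 0.3 before cleaved RNA was gel-selected and barcode-sequenced.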

[1] = experiment (reporter, strain, medium): exp 2b: truncated aprE reporter, strain BJT200
[2] = experiment (reporter, strain, medium): exp 4a: truncated aprE reporter, strain BJT201 with 2% xylose (RNase J1 expressed)
[3] = experiment (reporter, strain, medium): exp 6: tetM reporter, strain 168

Sequence: ACAGACGAAGGAGCCGCATAGAAGTTATTAATGGATGAATAATCCCTCAATATAAATATCTCTCACTTATTTAAA
- cleaved RNA product abundance [1]: 0.142
- cleaved RNA product abundance [2]: 0.214

Sequence: ACAGACGAAGGAGCCGCATAGAAGTTATTCAGGGATGAATAATCCCTCAATATAAATATCTCTCACTTATTTAAA
- cleaved RNA product abundance [2]: 0.947

Sequence: ACAGACGAAGGAGCCGCATAGAAGTTATTTAGGGATGAATAATCCCTCAATATAAATATCTCTCACTTATTTAAA
- cleaved RNA product abundance [2]: 0.962

Sequence: ACAGACGAAGGAGCCGCATAGAAGTTTTTAAGGGATGAATAATCCCTCAATATAAATATCTCTCACTTATTTAAA
- cleaved RNA product abundance [2]: 0.561

Sequence: ACAGACGAAGGAGCCGCATAGAATTTATTAAGGGATGAATAATCCCTCAATATAAATATCTCTCACTTATTTAAA
- cleaved RNA product abundance [1]: 0.76
- cleaved RNA product abundance [2]: 0.514

Sequence: ACAGACGAAGGAGCCGCATAGATGTTATTAAGGGATGAATAATCCCTCAATATAAATATCTCTCACTTATTTAAA
- cleaved RNA product abundance [2]: 1.38

Sequence: ACAGACGAAGGAGCCGCATATAAGTTATTAATGGATGAATAATCCCTCAATATAAATATCTCTCACTTATTTAAA
- cleaved RNA product abundance [2]: 0.131

Sequence: ACAGACGAAGGAGCCGCCAAGAAATTATTAAGGGATGAATAATCCCTCAATATAAATATCTCTCACTTATTTAAA
- cleaved RNA product abundance [2]: 0.549

Sequence: ACAGACGAAGGAGCCGCCAAGAAGTAATTAAGGGATGAATAATCCCTCAATATAAATATCTCTCACTTATTTAAA
- cleaved RNA product abundance [2]: 0.375

Sequence: ACAGACGAAGGAGCCGCCAAGAAGTTATTAAAGGATGAATAATCCCTCAATATAAATATCTCTCACTTATTTAAA
- cleaved RNA product abundance [2]: 0.144

Sequence: ACAGACGAAGGAGCCGCCAAGAAGTTATTAACGGATGAATAATCCCTCAATATAAATATCTCTCACTTATTTAAA
- cleaved RNA product abundance [1]: 0.0909

Sequence: ACAGACGAAGGAGCCGCCAAGAAGTTATTAAGGAATGAATAATCCCTCAATATAAATATCTCTCACTTATTTAAA
- cleaved RNA product abundance [2]: 0.107

Sequence: ACAGACGAAGGAGCCGCCAAGAAGTTATTAAGGGATGAAAAATCCCTCAATATAAATATCTCTCACTTATTTAAA
- cleaved RNA product abundance [2]: 0.576

Sequence: ACAGACGAAGGAGCCGCCAAGAAGTTATTAAGGGATGAATAAACCCTCAATATAAATATCTCTCACTTATTTAAA
- cleaved RNA product abundance [2]: 0.471

Sequence: ACAGACGAAGGAGCCGCCAAGAAGTTATTAAGGGATGAATAATCACTCAATATAAATATCTCTCACTTATTTAAA
- cleaved RNA product abundance [2]: 0.102

Sequence: ACAGACGAAGGAGCCGCCAAGAAGTTATTAAGGGATGAATAATCCATCAATATAAATATCTCTCACTTATTTAAA
- cleaved RNA product abundance [2]: 0.327

Sequence: ACAGACGAAGGAGCCGCCAAGAAGTTATTAAGGGATGAATAATCCCTCAATATAAATATCTCTCACTTATTTAAA
- cleaved RNA product abundance [1]: 0.985
- cleaved RNA product abundance [2]: 0.872

Sequence: ACAGACGAAGGAGCCGCCAAGAAGTTATTAAGGGATGAATAATCCCTCACTATAAATATCTCTCACTTATTTAAA
- cleaved RNA product abundance [1]: 0.191

Sequence: ACAGACGAAGGAGCCGCCAAGAAGTTATTAAGGGATGAATAATCCCTTAATATAAATATCTCTCACTTATTTAAA
- cleaved RNA product abundance [1]: 0.21
- cleaved RNA product abundance [2]: 0.305

Sequence: ACAGACGAAGGAGCCGCCAAGAAGTTATTAAGGGATGAATAATCCTTCAATATAAATATCTCTCACTTATTTAAA
- cleaved RNA product abundance [1]: 0.518
- cleaved RNA product abundance [2]: 0.531

Sequence: ACAGACGAAGGAGCCGCCAAGAAGTTATTAAGGGATTAATAATCCCTCAATATAAATATCTCTCACTTATTTAAA
- cleaved RNA product abundance [2]: 0.726

Sequence: ACAGACGAAGGAGCCGCCAAGAAGTTATTAAGGTATGAATAATCCCTCAATATAAATATCTCTCACTTATTTAAA
- cleaved RNA product abundance [2]: 0.103

Sequence: ACAGACGAAGGAGCCGCCAAGAAGTTATTAAGTGATGAATAATCCCTCAATATAAATATCTCTCACTTATTTAAA
- cleaved RNA product abundance [2]: 0.146

Sequence: ACAGACGAAGGAGCCGCCAAGAAGTTATTCAGGGATGAATAATCCCTCAATATAAATATCTCTCACTTATTTAAA
- cleaved RNA product abundance [2]: 0.506

Sequence: ACAGACGAAGGAGCCGCCAAGATGTTATTAAGGGATGAATAATCCCTCAATATAAATATCTCTCACTTATTTAAA
- cleaved RNA product abundance [2]: 0.894

Sequence: ACAGACGAAGGAGCCGCCAATAAGTTATTAAGGGATGAATAATCCCTCAATATAAATATCTCTCACTTATTTAAA
- cleaved RNA product abundance [2]: 0.812

Sequence: ACAGACGAAGGAGCCGCGAAGAACTTATTAAGGGATGAATAATCCCTCAATATAAATATCTCTCACTTATTTAAA
- cleaved RNA product abundance [2]: 0.252

Sequence: ACAGACGAAGGAGCCGCGAAGAAGTAATTAAGGGATGAATAATCCCTCAATATAAATATCTCTCACTTATTTAAA
- cleaved RNA product abundance [1]: 0.178

Sequence: ACAGACGAAGGAGCCGCGAAGAAGTGATTAAGGGATGAATAATCCCTCAATATAAATATCTCTCACTTATTTAAA
- cleaved RNA product abundance [2]: 0.347

Sequence: ACAGACGAAGGAGCCGCGAAGAAGTTAATAAGGGATGAATAATCCCTCAATATAAATATCTCTCACTTATTTAAA
- cleaved RNA product abundance [2]: 0.31

Sequence: ACAGACGAAGGAGCCGCGAAGAAGTTATGAAGGGATGAATAATCCCTCAATATAAATATCTCTCACTTATTTAAA
- cleaved RNA product abundance [2]: 0.248

Sequence: ACAGACGAAGGAGCCGCGAAGAAGTTATTAAAGGATGAATAATCCCTCAATATAAATATCTCTCACTTATTTAAA
- cleaved RNA product abundance [2]: 0.258

Sequence: ACAGACGAAGGAGCCGCGAAGAAGTTATTAACGGATGAATAATCCCTCAATATAAATATCTCTCACTTATTTAAA
- cleaved RNA product abundance [1]: 0.164
- cleaved RNA product abundance [2]: 0.185

Sequence: ACAGACGAAGGAGCCGCGAAGAAGTTATTAAGAGATGAATAATCCCTCAATATAAATATCTCTCACTTATTTAAA
- cleaved RNA product abundance [1]: 0.114
- cleaved RNA product abundance [2]: 0.108

Sequence: ACAGACGAAGGAGCCGCGAAGAAGTTATTAAGGAATGAATAATCCCTCAATATAAATATCTCTCACTTATTTAAA
- cleaved RNA product abundance [3]: 0.104

Sequence: ACAGACGAAGGAGCCGCGAAGAAGTTATTAAGGCATGAATAATCCCTCAATATAAATATCTCTCACTTATTTAAA
- cleaved RNA product abundance [1]: 0.0773

Sequence: ACAGACGAAGGAGCCGCGAAGAAGTTATTAAGGGATAAATAATCCCTCAATATAAATATCTCTCACTTATTTAAA
- cleaved RNA product abundance [2]: 0.679

Sequence: ACAGACGAAGGAGCCGCGAAGAAGTTATTAAGGGATCAATAATCCCTCAATATAAATATCTCTCACTTATTTAAA
- cleaved RNA product abundance [2]: 0.762

Sequence: ACAGACGAAGGAGCCGCGAAGAAGTTATTAAGGGATGAATAAACCCTCAATATAAATATCTCTCACTTATTTAAA
- cleaved RNA product abundance [2]: 0.467

Sequence: ACAGACGAAGGAGCCGCGAAGAAGTTATTAAGGGATGAATAATACCTCAATATAAATATCTCTCACTTATTTAAA
- cleaved RNA product abundance [2]: 0.117

Sequence: ACAGACGAAGGAGCCGCGAAGAAGTTATTAAGGGATGAATAATCACTCAATATAAATATCTCTCACTTATTTAAA
- cleaved RNA product abundance [2]: 0.122

Sequence: ACAGACGAAGGAGCCGCGAAGAAGTTATTAAGGGATGAATAATCCCACAATATAAATATCTCTCACTTATTTAAA
- cleaved RNA product abundance [1]: 0.17
- cleaved RNA product abundance [2]: 0.227

Sequence: ACAGACGAAGGAGCCGCGAAGAAGTTATTAAGGGATGAATAATCCCTCAAAATAAATATCTCTCACTTATTTAAA
- cleaved RNA product abundance [2]: 0.319

Sequence: ACAGACGAAGGAGCCGCGAAGAAGTTATTAAGGGATGAATAATCCCTCAATATAAATAACTCTCACTTATTTAAA
- cleaved RNA product abundance [1]: 1.05
- cleaved RNA product abundance [2]: 0.969

Sequence: ACAGACGAAGGAGCCGCGAAGAAGTTATTAAGGGATGAATAATCCCTCAATATAAATATCTCTCACTTATTTAAA
- cleaved RNA product abundance [1]: 0.919
- cleaved RNA product abundance [2]: 0.87
- cleaved RNA product abundance [3]: 0.885

Sequence: ACAGACGAAGGAGCCGCGAAGAAGTTATTAAGGGATGAATAATCCGTCAATATAAATATCTCTCACTTATTTAAA
- cleaved RNA product abundance [1]: 0.145

Sequence: ACAGACGAAGGAGCCGCGAAGAAGTTATTAAGGGATGAATAATCGCTCAATATAAATATCTCTCACTTATTTAAA
- cleaved RNA product abundance [2]: 0.134

Sequence: ACAGACGAAGGAGCCGCGAAGAAGTTATTAAGGGATGAATAATCTCTCAATATAAATATCTCTCACTTATTTAAA
- cleaved RNA product abundance [2]: 0.671

Sequence: ACAGACGAAGGAGCCGCGAAGAAGTTATTAAGGGATGAATAATTCCTCAATATAAATATCTCTCACTTATTTAAA
- cleaved RNA product abundance [2]: 0.684

Sequence: ACAGACGAAGGAGCCGCGAAGAAGTTATTAAGGGATGAATACTCCCTCAATATAAATATCTCTCACTTATTTAAA
- cleaved RNA product abundance [2]: 0.528

Sequence: ACAGACGAAGGAGCCGCGAAGAAGTTATTAAGGGATGAATTATCCCTCAATATAAATATCTCTCACTTATTTAAA
- cleaved RNA product abundance [2]: 0.548

Sequence: ACAGACGAAGGAGCCGCGAAGAAGTTATTAAGGGATTAATAATCCCTCAATATAAATATCTCTCACTTATTTAAA
- cleaved RNA product abundance [2]: 1.19

Sequence: ACAGACGAAGGAGCCGCGAAGAAGTTATTAAGGTATGAATAATCCCTCAATATAAATATCTCTCACTTATTTAAA
- cleaved RNA product abundance [1]: 0.117
- cleaved RNA product abundance [2]: 0.143

Sequence: ACAGACGAAGGAGCCGCGAAGAAGTTATTAATGGATGAATAATCCCTCAATATAAATATCTCTCACTTATTTAAA
- cleaved RNA product abundance [2]: 0.214

Sequence: ACAGACGAAGGAGCCGCGAAGAAGTTATTATGGGATGAATAATCCCTCAATATAAATATCTCTCACTTATTTAAA
- cleaved RNA product abundance [2]: 0.357

Sequence: ACAGACGAAGGAGCCGCGAAGAAGTTATTTAGGGATGAATAATCCCTCAATATAAATATCTCTCACTTATTTAAA
- cleaved RNA product abundance [1]: 0.572

Sequence: ACAGACGAAGGAGCCGCGAAGAAGTTTTTAAGGGATGAATAATCCCTCAATATAAATATCTCTCACTTATTTAAA
- cleaved RNA product abundance [2]: 0.418

Sequence: ACAGACGAAGGAGCCGCGAAGAATTTATTAAGGGATGAATAATCCCTCAATATAAATATCTCTCACTTATTTAAA
- cleaved RNA product abundance [2]: 0.561

Sequence: ACAGACGAAGGAGCCGCGAAGTAGTTATTAAGGGATGAATAATCCCTCAATATAAATATCTCTCACTTATTTAAA
- cleaved RNA product abundance [2]: 1.29

Sequence: ACAGACGAAGGAGCCGCGAATAAGTTATTAAGGGATGAATAATCCCTCAATATAAATATCTCTCACTTATTTAAA
- cleaved RNA product abundance [1]: 1.19
- cleaved RNA product abundance [2]: 1.47

Sequence: ACAGACGAAGGAGCCGCTAAAAAGTTATTAAGGGATGAATAATCCCTCAATATAAATATCTCTCACTTATTTAAA
- cleaved RNA product abundance [2]: 1.1

Sequence: ACAGACGAAGGAGCCGCTAACAAGTTATTAAAGGATGAATAATCCCTCAATATAAATATCTCTCACTTATTTAAA
- cleaved RNA product abundance [1]: 0.111
